Experimental data taken from paper PMC2176068, “Hepatoma derived growth factor binds DNA through the N-terminal PWWP domain”.

Key:
TNT-HDGF (untagged) = TNT-HDGF (untagged) (UniProt P51858 1-240); experiment: EMSA; 10 mM Tris pH 7.5, 50 mM KCl, 1 mM DTT, 5% glycerol, 0.05% NP-40, 0.1 ug sheared salmon sperm DNA; 1 ug protein, 0.25 pmol probe, 30 min on ice; 5% PAGE in 0.1x TBE; details: protein: ivt; tags: none; label: 5' biotin (sense strand); blunt
GST-HDGF Δ1-110 = GST-HDGF Δ1-110 (Homo sapiens, UniProt P51858 1-110); experiment: as above; details: protein: recombinant; tags: N-terminal GST; label: 5' biotin (sense strand); blunt
Sequence of GST-HDGF Δ1-110 (P51858 1-110, stated change not applied): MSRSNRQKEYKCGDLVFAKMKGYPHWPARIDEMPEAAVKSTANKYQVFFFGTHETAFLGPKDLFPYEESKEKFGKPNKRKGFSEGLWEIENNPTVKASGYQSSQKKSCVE

GST-HDGF Δ70-237 = GST-HDGF Δ70-237 (Homo sapiens, UniProt P51858 70-237); experiment: as above; details: protein: recombinant; tags: N-terminal GST; label: 5' biotin (sense strand); blunt
Sequence of GST-HDGF Δ70-237 (P51858 70-237, stated change not applied): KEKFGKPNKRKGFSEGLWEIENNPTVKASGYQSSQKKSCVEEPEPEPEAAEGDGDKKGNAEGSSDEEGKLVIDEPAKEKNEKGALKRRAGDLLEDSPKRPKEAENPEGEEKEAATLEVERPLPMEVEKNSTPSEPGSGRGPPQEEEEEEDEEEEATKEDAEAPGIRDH

GST-HDGF [1] = biological target: T1, GST-HDGF (Homo sapiens, UniProt P51858 1-240); experiment: as above; details: protein: recombinant, tags: N-terminal GST (pGEX-4T2), blunt
T1 sequence (P51858 whole entry): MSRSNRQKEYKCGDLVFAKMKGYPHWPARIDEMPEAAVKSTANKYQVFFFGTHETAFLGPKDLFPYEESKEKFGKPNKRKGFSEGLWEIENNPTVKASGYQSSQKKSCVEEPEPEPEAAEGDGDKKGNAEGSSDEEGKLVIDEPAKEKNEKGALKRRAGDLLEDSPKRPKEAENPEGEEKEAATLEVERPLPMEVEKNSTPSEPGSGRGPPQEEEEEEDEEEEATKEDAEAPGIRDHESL

GST-HDGF Δ1-140 = GST-HDGF Δ1-140 (Homo sapiens, UniProt P51858 1-140); experiment: as above; details: protein: recombinant; tags: N-terminal GST; label: 5' biotin (sense strand); blunt
Sequence of GST-HDGF Δ1-140 (P51858 1-140, stated change not applied): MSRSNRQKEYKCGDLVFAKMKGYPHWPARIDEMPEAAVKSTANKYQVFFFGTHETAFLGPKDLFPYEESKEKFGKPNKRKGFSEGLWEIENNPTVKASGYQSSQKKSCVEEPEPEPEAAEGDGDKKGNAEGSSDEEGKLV

His-HDGF-GFP = His-HDGF-GFP (UniProt P51858 1-240); experiment: as above; details: protein: recombinant; tags: His, GFP; label: 5' biotin (sense strand); blunt
Sequence of His-HDGF-GFP (P51858 whole entry): as the sequence (P51858 whole entry) above

GST-HDGF Δ1-146 = GST-HDGF Δ1-146 (Homo sapiens, UniProt P51858 1-146); experiment: as above; details: protein: recombinant; tags: N-terminal GST; label: 5' biotin (sense strand); blunt
Sequence of GST-HDGF Δ1-146 (P51858 1-146, stated change not applied): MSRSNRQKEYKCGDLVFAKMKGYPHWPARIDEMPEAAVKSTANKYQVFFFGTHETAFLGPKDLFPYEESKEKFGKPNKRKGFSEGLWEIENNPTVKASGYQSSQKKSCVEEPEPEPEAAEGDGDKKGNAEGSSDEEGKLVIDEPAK

GST-HDGF [2] = biological target: T1, GST-HDGF; experiment: competition; 100x unlabeled, labeled 80 bp probe; 10 mM Tris pH 7.5, 50 mM KCl, 1 mM DTT, 5% glycerol, 0.05% NP-40, 0.1 ug sheared salmon sperm DNA; 1 ug protein, 0.25 pmol probe, 30 min on ice; 5% PAGE in 0.1x TBE; details: protein: recombinant, tags: N-terminal GST (pGEX-4T2)

Sequence of TNT-HDGF (untagged) (P51858 whole entry): as the sequence (P51858 whole entry) above

B1: SMYD1 promoter 80 bp probe (dsDNA)
DNA 1: CAGGCTGGTCTTGAACTCCTGACCTCAGATGATCCATGTGCCTCGGCCTCCCAAGGTGGGGATTACAGGCGTGAGCCACC
DNA 2: GGTGGCTCACGCCTGTAATCCCCACCTTGGGAGGCCGAGGCACATGGATCATCTGAGGTCAGGAGTTCAAGACCAGCCTG
binding result (TNT-HDGF (untagged)): binds
binding result (GST-HDGF Δ1-110): binds
binding result (GST-HDGF Δ70-237): no binding
binding result (GST-HDGF [1]; label: 5' biotin (sense strand)): binds
binding result (GST-HDGF Δ1-140): binds
binding result (His-HDGF-GFP): binds
binding result (GST-HDGF Δ1-146): binds

B2: 80 bp specific competitor (unlabeled) (dsDNA)
DNA 1: CAGGCTGGTCTTGAACTCCTGACCTCAGATGATCCATGTGCCTCGGCCTCCCAAGGTGGGGATTACAGGCGTGAGCCACC
DNA 2: GGTGGCTCACGCCTGTAATCCCCACCTTGGGAGGCCGAGGCACATGGATCATCTGAGGTCAGGAGTTCAAGACCAGCCTG
binding result (GST-HDGF [2]; blunt): binds

B3: 37 bp minimal probe (dsDNA)
DNA 1: CTTGAACTCCTGACCTCAGATGATCCATGTGCCTCGG
DNA 2: CCGAGGCACATGGATCATCTGAGGTCAGGAGTTCAAG
binding result (GST-HDGF [1]; label: 5' biotin): binds

B4: non-specific competitor (dsDNA)
DNA 1: TGCTGTTGACAGTGAGCGCGGCCAGCTTATAGTCATATATTAGTGAAGCCACAGATGTAATATATGACTATAAGCTGGCCTTGCCTACTGCCTCGGA
DNA 2: TCCGAGGCAGTAGGCAAGGCCAGCTTATAGTCATATATTACATCTGTGGCTTCACTAATATATGACTATAAGCTGGCCGCGCTCACTGTCAACAGCA
binding result (GST-HDGF [2]): no binding
